The values that follow come from article PMC5389665.

A word on the stoichiometry N: it is a count of units in the complex or per binding partner.

For the assay, the target named is TerL P74-26 nuclease domain (residues 256–485) (Thermus phage P74-26). Description: SEC. In general terms: In gel filtration, larger molecules generally elute earlier.

The substance “TerL P74-26 nuclease domain (residues 256–485) (domain or fragment)” displayed a stoichiometry N of 2.
